Results: the nanobody polyreactivity screen of Harvey et al. (2022)

Test: yeast display, Sf9 membrane polyspecificity reagent, FACS + sequencing; frameworks hold sequencing errors
Method in brief: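 In a synthetic yeast display library (Saccharomyces cerevisiae BJ5465), nanobody expression was induced with galactose for 36–48 hours. FACS gates were set low and high (top ~1%) using anti-HA fluorescence for expression and streptavidin fluorescence for binding of the Sf9 membrane reagent. Each polyreactivity label is drawn from the gate of origin.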

Row | Sequence | polyreactivity (PSR sort gate)
1 | QVQLVESVGGLVQAGGSLRLSCAASGLIFSRYAMGWYRQAPGKERELVAAITSGTSTYYADSVKGRFTISRDNAKNTVYLQMNSLKPEDTAVYYCARRYRGGYKYDYWGQGTQVTVSS | high polyreactivity
2 | QVQLVESGGGLVQAGGSLRLSCAASGFIFYDYALGWYRQAPGKERELVAAITQRGGSTYYADSVKGRFPISRDNAKKTVYLQMTSLKPVDTAVYSCAAKDAPYWFPITHVQPVDMDYWGQGTQVTVSS | high polyreactivity
3 | QVQLVESGGGLVQAGGSLSLSCAASGYTFLRYAMGWYRQAPGQERELVATISRSGGRTYYADSVKGRFTISRDNAKNTVYLLMNSLKPEDTSVYYCNAEAIVVNGGGYWGQGTQVTVSS | high polyreactivity
4 | QVQLVESGGGLVQAGGSLRLSCAASGSTFSHNTMGWYRQAPGKERELVAAISSRGSSTYYADSVKGRFTISRDNAKNTVYLQMNSLKPEDTAVYYCAARYLRGTWAGLGYDYWGQGTQVTVSS | low polyreactivity
5 | QVQLVESGGGLVQAGCSLRLSCAASGSIFDSKAMGWYRQAPGKERELVAAISSSGARTYYADSVKGRFTISRDNAKNTVYLQMNSLKPEDTAVYYCAAKPGYKSKMDYWGQGTQVTVSS | high polyreactivity
6 | QVQLVESGGGLVQAGGSLRLSCAASGSTFRYYAMGWYRQAPGKERELVAAITYRATSTYYADSVEGRFTISRDNAKNTVYLQMNSLKPEYTAVYYCAAYSTYSRSDYWGQGTQVTVSS | high polyreactivity
7 | QVQLVESGGGLVQAGGSLRLSCAASGSLFYINAMGWYRQAPGKERELVAAITSDGSTYYADSVKGRFTISRDNAKNTVYLQMNSLKPEDTAVYYCAADLTSDQYLYYWYWFYSWGQGTQVTVSS | low polyreactivity
8 | QVQLQESGAGLLQAGGCLSCTASGTIFGQGDMGWYRQAPGKERELLATINDGASTYYADSVKGRFTISRDKAKNTVYLKKNSLKPDDTAVDYFAVFTDITNYFGYWGQATQVTVSS | low polyreactivity
9 | QVQLVESGGGLVQAGGSLRLSCAASGFTFPAYTMGWYRQAPGKEREWVAAITSSGGNTYYADSVKGRFTISRDNAKNTVYLQMNSLKPEDTAVYYCATVSVRWPSNDHVRYDYWGQGTQVTVSS | low polyreactivity
10 | QVQLVESGGCLVQAGGSLRLSCAASGFIFCGNARGGYIPAPGKERELVAVITRSGGSTYADSVKGRFTISRDNAKNTVYLQMNSLKPEVTAVYYCAADQQTWWQYSLINEYDYWGQGTQVTVSS | low polyreactivity
11 | QVQLVESGGGLVQAGGSLRLSCAASGFTFRDNAMGWYRQAPGKERELVAAITWDGGSTYYADSVKGRFTISRDNAKNTVYLQMYSLKPEDTAVYYCAASRYYPRYFKRYYYWGQGTQVTVSS | high polyreactivity
12 | QVQLVESGGGLVQAGGSLRLSCAASGRIFSYAMGWYRQAPGKERELVAAITRRGSTYYADSVKGRFTISRDNAKNTVYLQMKSLKPEDTAVYYCAADIYYSRTFYPMGYWGQGTQVTVSS | high polyreactivity
13 | QVQLVESGGGLVQAGGSLRLSCAASGITFNVNAMGWYRQAPGKERELVARITTSGGSTSYADSVKGRFTISRDNAKNTVYLQMNSLKPEDTAVYYFAADRARYYSEYDYWGQGTQVTVSS | low polyreactivity
14 | QVQLVESGGCLDQAGGSLRLSWDASGRTFDFNAIGWYRQAPGKERELVAAITHSAGRTYYADSVKGRFTLSRDIAKNTVYLQMNSLKREDTAVYYCATRYYNYARTSYGYWGQGTQVTVSS | high polyreactivity
15 | QVQLVESGGGLVQAGGSLRLSCAASGFIFYRYAMGWYRQAPGKEREFVAAITRSAGGTYYADSVKGRFTISRDNEKNTVYLQMNSLKPEDTAVYYCAAVYRSGSRYYLGWYNYWGQGTQVTVSS | high polyreactivity
16 | QVQLVESGGGLVQAGGSLRLSCAASGSILGRYAMGWYRQAPGKERELVAAITNRGGSTYYADSVNGRFTISRDNAKNTVYLQMNSLKPEDTAVYYCAAPYSAKELYYRMDYWGQGTQVTVSS | high polyreactivity
17 | QVQLVESGGGLVQAGGSLRLSCAASGSTFGSNAMGWYRQAPGKEREFVAAISRRGGSTYYADSVKGRFTISRDNAKNTVYLQMNSLKPEDTAVYYCAADYISLREEDYWGQGTQVTVSS | high polyreactivity
18 | QVQLVESGGGLVQAGGSLSLSCSASGRTLYFYAMGWYRQAPGKERELVAAIRWRGGSTYYADSVKGRFTISRDNAKNTVYLQMNSLKPEDTAVYYCAADVPSGYDYWGQGTQVTVSS | high polyreactivity
19 | QVQLVESGGGLVQAGGSLRLSCAASGRIFPGNPMGWYRQAPGKERELVAGISFSGGRTYYADSVKGRFTISRDNAKNTVYLQMNSLKPEDTAVYYCAADAQAPPGGFKEYDYWGQGTQVTVSS | low polyreactivity
20 | QVQLVESGGGLVQAGGSLRLTCAASGRTFFVYAMGWYRPAPGKERELVASITLSGGSTYYADSVKGRFTISRDNAKNTVYLQMNSLKPEDTAVYYCAKGWSRDNDREREDEYWGQGTQVTVSS | low polyreactivity
21 | QVQLVESGGGLVQAGGSLRLSCPASGSTFYGYVMGGYRQAPGKERELVAAISGSTYYADSVKGRFTISRDNAKNTVYLQMNSLKPEDTAVYYCNADDYRSYGGDSWGQGTQVTVSS | low polyreactivity
22 | QVQLVESGGGLVQAGGRLRLSCAASGSTFRYYALGWYRQAPGKERELVAVISSTGSRTNYADSVKGRFTISRDNAKNTVYLQMNSLKPEHTAVYYCAADTTRRAPGYYYWGQGTQETVSS | high polyreactivity
